Test results taken from the supplement of paper PMC11196671.
± gives the standard deviation of the averaged measurements.

Test: PET hydrolysis product formed (TPA+MHET+BHET, UV-Vis) per mg enzyme (mmol/mg enzyme); higher = more PET depolymerisation activity; extreme values may be limits of the assay
Conditions: 24 h
Description: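 Purified PET hydrolases, 2.5 ug enzyme on 3.5 mg amorphous PET film (aFilm) or crystalline PET powder (cryPow) in 0.5 mL of 50 mM buffer (NaCitrate pH 4.5/5.5, NaPhosphate 6.5/7.5, glycine 8.5/9.5) at 60 or 70 C with shaking for 24 h. Total aromatic product by UV-Vis (260/280 nm, blank-subtracted, normalised per mg enzyme) and individual TPA, MHET, BHET concentrations by UHPLC-DAD at 240 nm; duplicate reactions.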

[1] = PET substrate: aFilm, 60 °C, pH 4.5
[2] = PET substrate: aFilm, 60 °C, pH 5.5
[3] = PET substrate: aFilm, 60 °C, pH 6.5
[4] = PET substrate: aFilm, 60 °C, pH 7.5
[5] = PET substrate: aFilm, 60 °C, pH 8.5
[6] = PET substrate: aFilm, 60 °C, pH 9.5
[7] = PET substrate: aFilm, 70 °C, pH 4.5
[8] = PET substrate: aFilm, 70 °C, pH 5.5
[9] = PET substrate: aFilm, 70 °C, pH 6.5
[10] = PET substrate: aFilm, 70 °C, pH 7.5
[11] = PET substrate: aFilm, 70 °C, pH 8.5
[12] = PET substrate: aFilm, 70 °C, pH 9.5
[13] = PET substrate: cryPow, 60 °C, pH 4.5
[14] = PET substrate: cryPow, 60 °C, pH 5.5
[15] = PET substrate: cryPow, 60 °C, pH 6.5
[16] = PET substrate: cryPow, 60 °C, pH 7.5
[17] = PET substrate: cryPow, 60 °C, pH 8.5
[18] = PET substrate: cryPow, 60 °C, pH 9.5
[19] = PET substrate: cryPow, 70 °C, pH 4.5
[20] = PET substrate: cryPow, 70 °C, pH 5.5
[21] = PET substrate: cryPow, 70 °C, pH 6.5
[22] = PET substrate: cryPow, 70 °C, pH 7.5
[23] = PET substrate: cryPow, 70 °C, pH 8.5
[24] = PET substrate: cryPow, 70 °C, pH 9.5

Sequence | PET hydrolysis product formed [1] | PET hydrolysis product formed [2] | PET hydrolysis product formed [3] | PET hydrolysis product formed [4] | PET hydrolysis product formed [5] | PET hydrolysis product formed [6] | PET hydrolysis product formed [7] | PET hydrolysis product formed [8] | PET hydrolysis product formed [9] | PET hydrolysis product formed [10] | PET hydrolysis product formed [11] | PET hydrolysis product formed [12] | PET hydrolysis product formed [13] | PET hydrolysis product formed [14] | PET hydrolysis product formed [15] | PET hydrolysis product formed [16] | PET hydrolysis product formed [17] | PET hydrolysis product formed [18] | PET hydrolysis product formed [19] | PET hydrolysis product formed [20] | PET hydrolysis product formed [21] | PET hydrolysis product formed [22] | PET hydrolysis product formed [23] | PET hydrolysis product formed [24]
ADNPYQRGPDPTNASIEAATGPFAVGTQPIVGASGFGGGQIYYPTDTSQTYGAVVIVPGFISVWAQLAWLGPRLASQGFVVIGIETSTITDLPDPRGDQALAALDWATTRSPVRSRIDRTRLAAAGWSMGGGGLRRAACQRPSLKAIVGMAPWNTEKNWSCVTVPTLFFGGSSDAVASPNDHAKPFYNSITRAEKDYIELCNADHFFPTSANTTMAKYFISWLKRWVDNDTRYTQFLCPGPSTGLFAPVCASMNTCPF [CaPETaseM9] | 0 | 0.0213 ± 0.013 | 0.0426 ± 0.0061 | 0.132 ± 0.037 | 0.0575 ± 0.005 | 0.102 ± 0.029 | 0 | 0 | 0 | 0 | 0 | 0 | 0.016 ± 0.0019 | 0.0317 ± 0.0017 | 0.0476 ± 0.0037 | 0.0789 ± 0.011 | 0.0427 ± 0.0075 | 0.0717 ± 0.019 | 0 | 0.00351 ± 0.005 | 0.0154 ± 0.0042 | 0.0196 ± 0.0026 | 0.0178 ± 0.0023 | 0.0148 ± 0.0087
ANPYERGPNPTDALLEARSGPFSVSEENVSRLSASGFGGGTIYYPRENNTYGAVAISPGYTGTEASIAWLGERIASHGFVVITIDTITTLDQPDSRAEQLNAALNHMINRASSTVRSRIDSSRLAVMGHSMGGGGSLRLASQRPDLKAAIPLTPWHLNKNWSSVTVPTLIIGADLDTIAPVATHAKPFYNSLPSSISKAYLELDGATHFAPNIPNKIIGKYSVAWLKRFVDNDTRYTQFLCPGPRDGLFGEVEEYRSTCPF [TfCut2] | 0 | 0.0295 ± 0.0072 | 0.0361 ± 0.011 | 0.111 ± 0.025 | 0.0556 ± 0.0097 | 0.133 ± 0.015 | 0 | 0 | 0.0032 ± 0.0045 | 0 | 0.0109 ± 0.00071 | 0.0072 ± 0.0013 | 0 | 0 | 0.00709 ± 0.01 | 0.0369 ± 0.026 | 0.0198 ± 0.0049 | 0.0223 ± 0.019 | 0 | 0 | 0 | 0 | 0 | 0
QDNPYERGPDPTEDSIEAIRGPFSVATERVSSFASGFGGGTIYYPRETDEGTFGAVAVAPGFTASQGSMSWYGERVASHGFIVFTIDTNTRLDAPGQRGRQLLAALDYLVERSDRKVRERLDPNRLAVMGHSMGGGGSLEATVMRPSLKASIPLTPWHLDKTWGQVQVPTFIIGAELDTIAPVSTHAKPFYESLPSSLPKAYMELCGATHFAPNIPNTTIAKYVISWLKRFVDEDTRYSQFLCPNPTDRAICEYRSTCPY [Cut190*SS] | 0 | 0 | 0.0256 ± 0.0062 | 0.154 ± 0.0032 | 0.0616 ± 0.0081 | 0.162 ± 0.035 | 0 | 0 | 0 | 0.191 ± 0.0084 | 0 | 0.169 ± 0.015 | 0 | 0.0274 ± 0.0032 | 0.0533 ± 0.0029 | 0.0968 ± 0.012 | 0.0772 ± 0.035 | 0.0813 ± 0.026 | 0 | 0 | 0.00998 ± 0.0019 | 0.031 | 0.0112 ± 0.00036 | 0.0149 ± 0.0056
QTNPYARGPDPTAASLEASAGPFTVRSFTVSRPSGYGAGTVYYPTNAGGTVGAIAIVPGYTARQSSIKWWGPRLASHGFVVITIDTNSTLDQPESRSSQQMAALEQVASLNGTSSSPIYGKVDTARMGVMGWSMGGGGSLISACNNPSLKAAVVQAPWHSSTNFSCVTVPTLIFACENDSIAPVNSSALPIYDSMSENAKQFLEICGGSHSCANTGNSDQALIGKKGVAWMKRFMDNDTRYSTFACENPNSTRVCDFRTANCS [Z1-PETase] | 0 | 0.00483 ± 0.0068 | 0.113 ± 0.03 | 0.617 ± 0.27 | 0.103 ± 0.0058 | 0.517 ± 0.092 | 0 | 0 | 0 | 0.00464 ± 0.0066 | 0 | 0.00672 ± 0.0095 | 0 | 0.0183 ± 0.014 | 0.126 ± 0.0032 | 0.152 ± 0.0075 | 0.117 ± 0.022 | 0.134 ± 0.0067 | 0 | 0 | 0.0331 ± 0.0023 | 0.0691 ± 0.012 | 0.0403 | 0.0592 ± 0.022
QTNPYARGPNPTAASLEASAGPFTVRSFTVARPVGYGAGTVYYPTNAGGTVGAIAIVPGYTATQSSINWWGPRLASHGFVVITIDTNSTLDKPESRSSQQMAALRQVASLNGTSSSPIYGKVDTARGGVMGWSMGGGGSLISAANNPSLKAAAVMAPWHSSTNFSSVTVPTLIFACENDRIAPVKEYALPIYDSMSLNAKQFLEICGGSHSCACSGNSNQALIGMKGVAWMKRFMDNDTRYSQFACENPNSTAVCDFRTANCS [HotPETase] | 0 | 0.126 ± 0.01 | 0.172 ± 0.017 | 1.02 ± 0.28 | 0.116 ± 0.0013 | 0.744 ± 0.13 | 0 | 0 | 0.0334 ± 0.033 | 0.0761 ± 0.082 | 0.049 ± 0.0026 | 0.175 ± 0.067 | 0 | 0.118 ± 0.008 | 0.14 ± 0.0042 | 0.195 ± 0.031 | 0.104 ± 0.008 | 0.151 ± 0.0065 | 0 | 0.0481 ± 0.003 | 0.103 ± 0.0067 | 0.094 ± 0.019 | 0.0775 ± 0.0022 | 0.0809 ± 0.015
